Where two headings read alike, the source gives them in different places.
Experiments:
[1] = mouse; expected from published studies and own work; cited from earlier work
[2] = Expected pharmacokinetics of soluble and/or released interferon α in the mouse; assay type: in vivo; conditions: for a 20 g mouse
Method: Animal Study. […] Mice used for this study were Balb/c transgenic for the human Interferon α2b gene (Braun et al. 1997, Palleroni et al. 1997). Three mice were used for each formulation. As a, control, one set of mice was injected with 50 μg of soluble human IFN-α001. […] Thus, for a 20 g mouse, the volume of distribution should be ˜8 ml. At 24 hours after administration, given a half-life of 1 hr, we would predict that the serum concentration remaining from a 50 μg dose would be ˜1 pg/ml. In practice, all of the sera of this group of mice were below the detection limit of the ELISA of 40 pg/ml. To test our formulation strategy, we produced 5 different interferon formulations. Human IFN-α2b, human IFN-α001, human IFN-α012, and murine IFN-α formulations were allowed to mature for 18 hr. A fifth formulation contained human IFN-α001 and matured for 3 hours prior to centrifugation. The human IFN-α formulations were produced at 0.4 mg/ml protein with 25 mM NaOAc pH 5.4, 6 mM Tris pH 8.0, 50 mM NaCl, 1.25% glycerol, with particle formation intitiated by addition of N-propanol to 16%. […] Serum was collected at 24 hours post injection, mice in all groups recieving a human interferon had immunoreactive interferon in their serum as determined by ELISA (PBL Multispecies ELISA # 41105). […] No interferon was detected at the 96 hours or 168 hours time points.

For interferon α, the volume of distribution [1] is listed as “about 0.4 ml/g” and the volume of distribution [2] is listed as roughly 8 mL.
